Experimental data taken from patent US20110262964A1 (published 2011).
Where “and” joins values, the source holds several entries; their conditions need not be identical. Equal values may be shown once.

What was measured:
[1] = biological target: bt-MalE, hybrid between a peptide that can be biotinylated in vivo by E. coli and MalE (Escherichia coli)
[2] = biological target: T1, maltose binding protein MalE from Escherichia coli (Escherichia coli, UniProt P0AEX9 27-396 = MBP); test: competition Biacore in solution, buffer L2; buffer L2
[3] = biological target: T1, maltose binding protein MalE from …; test: competition Biacore in solution, buffer M2; buffer M2
bovine serum albumin = biological target: T2, bovine serum albumin (bovine, UniProt P02769 25-607); test: fluorescence titration of 0.3 µM DarpOff7(N45ANBD) by BSA, 25 °C, buffer M1
T2 construct: also called BSA

[4] = biological target: T1, maltose binding protein MalE from …; test: ΔG(wt)-ΔG(mut) from Kd by competition Biacore (reference itself)

T2 sequence (P02769 25-607 limits assumed): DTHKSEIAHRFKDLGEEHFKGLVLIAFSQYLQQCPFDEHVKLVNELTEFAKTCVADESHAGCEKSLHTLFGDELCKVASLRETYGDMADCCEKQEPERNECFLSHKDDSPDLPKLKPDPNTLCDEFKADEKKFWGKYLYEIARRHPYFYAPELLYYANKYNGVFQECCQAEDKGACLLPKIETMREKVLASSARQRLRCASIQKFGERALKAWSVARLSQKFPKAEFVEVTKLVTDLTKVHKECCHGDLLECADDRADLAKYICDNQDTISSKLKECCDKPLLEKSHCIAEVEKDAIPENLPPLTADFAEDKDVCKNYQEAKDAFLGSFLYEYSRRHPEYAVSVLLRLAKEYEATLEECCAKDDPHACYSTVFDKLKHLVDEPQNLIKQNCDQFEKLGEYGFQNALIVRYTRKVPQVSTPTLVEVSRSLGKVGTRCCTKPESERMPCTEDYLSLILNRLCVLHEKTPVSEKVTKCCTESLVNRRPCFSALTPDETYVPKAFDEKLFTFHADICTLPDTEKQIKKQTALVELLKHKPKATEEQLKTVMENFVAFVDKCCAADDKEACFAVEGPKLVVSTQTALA

B1: DarpOff7(wt) (designed binder)
chain: MRGSHHHHHHGSDLGRKLLEAARAGQDDEVRILMANGADVNAADNTGTTPLHLAAYSGHLEIVEVLLKHGADVDASDVFGYTPLHLAAYWGHLEIVEVLLKNGADVNAMDSDGMTPLHLAAKWGYLEIVEVLLKHGADVNAQDKFGKTAFDISIDNGNEDLAEILQKLN
koff [1]: 0.0051 s⁻¹ and 0.0062 s⁻¹ and 0.0061 s⁻¹
kon [1]: 660000 M⁻¹ s⁻¹ and 250000 M⁻¹ s⁻¹ and 550000 M⁻¹ s⁻¹
Kd [2]: 11 nM
Kd [3]: 5.6 nM

B2: DarpOff7(N45ANBD) (designed binder)
chain: MRGSHHHHHHGSDLGRKLLEAARAGQDDEVRILMANGADVNAADCTGTTPLHLAAYSGHLEIVEVLLKHGADVDASDVFGYTPLHLAAYWGHLEIVEVLLKNGADVNAMDSDGMTPLHLAAKWGYLEIVEVLLKHGADVNAQDKFGKTAFDISIDNGNEDLAEILQKLN
notes: also called conjugate at position Asn45; Asn45
binding result (bovine serum albumin): no binding (tested: 2.4 µM)

B3: DarpMbp3-16(wt) (designed binder)
chain: MRGSHHHHHHGSDLGKKLLEAAHAGQDDEVRILMANGADVNAMDNFGVTPLHLAAYWGHFEIVEVLLKYGADVNASDATGDTPLHLAAKWGYLGIVEVLLKYGADVNAQDKFGKTAFDISIDNGNEDLAEILQKLN
ΔΔG [4]: 0 kcal/mol
